Reference: patent publication US20250304650A1
Residue numbers refer to the chain shown, from its start. Names and notes keep the numbering of the source. Values joined by “and” are separate entries in the source; they are usually repeats but may differ in a detail not shown here. Identical values can stand only once.

B1: anti-NGF feline IgG1a, Fc variant S252W (antibody, part only; not given: anti-NGF variable domains, light chain, not shown: another chain or arm of the molecule; small tags and cut ends)
Fc: PPEMLGGPSIFIFPPKPKDTLWISRTPEVTCLVVDLGPDDSDVQITWFVDNTQVYTAKTSPREEQFNSTYRVVSVLPILHQDWLKGKEFKCKVNSKSLPSPIERTISKAKGQPHEPQVYVLPPAQEELSRNKVSVTCLIKSFHPPDIAVEWEITGQPEPENNYRTTPPQLDSDGTYFVYSKLSVDRSHWQRGNTYTCSVSHEALHSHHTQKSLTQSPGK
B2: anti-NGF feline IgG1a, Fc variant S428Y, Q311V, T286E (antibody, part only; not given: anti-NGF variable domains, light chain, not shown: another chain or arm of the molecule; small tags and cut ends)
Fc: B1 Fc with W22S, T56E, Q81V, S200Y
B3: anti-NGF feline IgG1a, Fc variant S428Y, Q311V, E380T (antibody, part only; not given: anti-NGF variable domains, not shown: another chain or arm of the molecule; small tags and cut ends)
Fc: B1 Fc with W22S, Q81V, E150T, S200Y
B4: anti-NGF feline IgG1a, Fc variant T286E, S428R (antibody, part only; not given: anti-NGF variable domains, not shown: another chain or arm of the molecule; small tags and cut ends)
Fc: B1 Fc with W22S, T56E, S200R
B5: anti-NGF feline IgG1a, Fc variant S252Y, Q311V (antibody, part only; not given: anti-NGF variable domains, light chain, not shown: another chain or arm of the molecule; small tags and cut ends)
Fc: B1 Fc with W22Y, Q81V
B6: anti-NGF feline IgG1a, Fc variant S434Y, S426L (antibody, part only; not given: anti-NGF variable domains, light chain, not shown: another chain or arm of the molecule; small tags and cut ends)
Fc: B1 Fc with W22S, S198L, S206Y
B7: anti-NGF feline IgG1a, Fc variant S252Y, Q311K (antibody, part only; not given: anti-NGF variable domains, light chain, not shown: another chain or arm of the molecule; small tags and cut ends)
Fc: B1 Fc with W22Y, Q81K
B8: feline IgG1a Fc variant S252W (CH2-CH3) with SASA tag (Fc fusion, part only; not given: SASA tag, not shown: another chain or arm of the molecule; small tags and cut ends)
Fc: B1 Fc
B9: feline IgG1a Fc variant S434W (CH2-CH3) with SASA tag (Fc fusion, part only; not given: SASA tag, not shown: another chain or arm of the molecule; small tags and cut ends)
Fc: B1 Fc with W22S, S206W
B10: feline IgG1a Fc variant S434H (CH2-CH3) with SASA tag (Fc fusion, part only; not given: SASA tag, not shown: another chain or arm of the molecule; small tags and cut ends)
Fc: B1 Fc with W22S, S206H
B11: wild-type feline IgG1a Fc (CH2 and CH3 domains) with SASA tag (Fc fusion, part only; not given: SASA tag, not shown: another chain or arm of the molecule; small tags and cut ends)
Fc: B1 Fc with W22S
B12: feline IgG1a Fc variant S252F (CH2-CH3) with SASA tag (Fc fusion, part only; not given: SASA tag, not shown: another chain or arm of the molecule; small tags and cut ends)
Fc: B1 Fc with W22F
B13: feline IgG1a Fc variant S428L (CH2-CH3) with SASA tag (Fc fusion, part only; not given: SASA tag, not shown: another chain or arm of the molecule; small tags and cut ends)
Fc: B1 Fc with W22S, S200L
B14: feline IgG1a Fc variant S428M (CH2-CH3) with SASA tag (Fc fusion, part only; not given: SASA tag, not shown: another chain or arm of the molecule; small tags and cut ends)
Fc: B1 Fc with W22S, S200M
B15: feline IgG1a Fc variant S434F (CH2-CH3) with SASA tag (Fc fusion, part only; not given: SASA tag, not shown: another chain or arm of the molecule; small tags and cut ends)
Fc: B1 Fc with W22S, S206F
B16: feline IgG1a Fc variant S252Y (CH2-CH3) with SASA tag (Fc fusion, part only; not given: SASA tag, not shown: another chain or arm of the molecule; small tags and cut ends)
Fc: B1 Fc with W22Y
B17: feline IgG1a Fc variant S428Y (CH2-CH3) with SASA tag (Fc fusion, part only; not given: SASA tag, not shown: another chain or arm of the molecule; small tags and cut ends)
Fc: B1 Fc with W22S, S200Y
B18: anti-NGF feline IgG1a, Fc variant S252Y, Q311L (antibody, part only; not given: anti-NGF variable domains, not shown: another chain or arm of the molecule; small tags and cut ends)
Fc: B1 Fc with W22Y, Q81L
B19: anti-NGF feline IgG1a, Fc variant S252Y (antibody, part only; not given: Anti-NGF variable domains, not shown: another chain or arm of the molecule; small tags and cut ends)
Fc: B1 Fc with W22Y
B20: anti-NGF feline IgG1a, Fc variant S434Y, S254R (antibody, part only; not given: anti-NGF variable domains, light chain, not shown: another chain or arm of the molecule; small tags and cut ends)
Fc: B1 Fc with W22S, S24R, S206Y
B21: anti-NGF feline IgG1a, Fc variant N389c-R (antibody, part only; not given: anti-NGF variable domains, not shown: another chain or arm of the molecule; small tags and cut ends)
Fc: B1 Fc with W22S, N161R
B22: anti-NGF feline IgG1a, Fc variant S426H (antibody, part only; not given: anti-NGF variable domains, not shown: another chain or arm of the molecule; small tags and cut ends)
Fc: B1 Fc with W22S, S198H
B23: anti-NGF feline IgG1a, Fc variant R334D, R301L (antibody, part only; not given: anti-NGF variable domains, light chain, not shown: another chain or arm of the molecule; small tags and cut ends)
Fc: B1 Fc with W22S, R71L, R104D
B24: anti-NGF feline IgG1a, Fc variant S434Y (antibody, part only; not given: Anti-NGF variable domains, not shown: another chain or arm of the molecule; small tags and cut ends)
Fc: B1 Fc with W22S, S206Y
B25: anti-NGF feline IgG1a, Fc variant S426L, S428H (antibody, part only; not given: anti-NGF variable domains, light chain, not shown: another chain or arm of the molecule; small tags and cut ends)
Fc: B1 Fc with W22S, S198L, S200H
B26: anti-NGF feline IgG1a, Fc variant S426L, T289H (antibody, part only; not given: Anti-NGF variable domains, not shown: another chain or arm of the molecule; small tags and cut ends)
Fc: B1 Fc with W22S, T59H, S198L
B27: anti-NGF feline IgG1a, Fc variant S252Y, Q311R (antibody, part only; not given: anti-NGF variable domains, not shown: another chain or arm of the molecule; small tags and cut ends)
Fc: B1 Fc with W22Y, Q81R
B28: anti-NGF feline IgG1a, Fc variant R334D, S428R (antibody, part only; not given: anti-NGF variable domains, light chain, not shown: another chain or arm of the molecule; small tags and cut ends)
Fc: B1 Fc with W22S, R104D, S200R
B29: anti-NGF feline IgG1a, Fc variant S428Y, S254R (antibody, part only; not given: Anti-NGF variable domains, not shown: another chain or arm of the molecule; small tags and cut ends)
Fc: B1 Fc with W22S, S24R, S200Y
B30: anti-NGF feline IgG1a, Fc variant S428H, T289H (antibody, part only; not given: anti-NGF variable domains, light chain, not shown: another chain or arm of the molecule; small tags and cut ends)
Fc: B1 Fc with W22S, T59H, S200H
B31: anti-NGF feline IgG1a, Fc variant S428H (antibody, part only; not given: anti-NGF variable domains, light chain, not shown: another chain or arm of the molecule; small tags and cut ends)
Fc: B1 Fc with W22S, S200H
B32: anti-NGF feline IgG1a, Fc variant R334D, T437L (antibody, part only; not given: anti-NGF variable domains, light chain, not shown: another chain or arm of the molecule; small tags and cut ends)
Fc: B1 Fc with W22S, R104D, T209L
B33: anti-NGF feline IgG1a, Fc variant T286E, S428H (antibody, part only; not given: Anti-NGF variable domains, not shown: another chain or arm of the molecule; small tags and cut ends)
Fc: B1 Fc with W22S, T56E, S200H

These binders were tested against feline FcRn (IgG receptor FcRn large subunit p51 with feline beta-2-microglobulin) (feline) (assay: SPR Biacore 8K+, IgG on C1 chip, pH 5.9, 1:1 kinetic fit).

Binder | Kd
B1 | 4.01 nM
B2 | 6.11 nM
B3 | 20.1 nM

The binders below were run against feline FcRn (FCN-F82W3, Acrobiosystems) (feline) (assay: SPR Carterra, IgG coupled, pH 7.4).

Binder | Kd | koff | kon
B4 | 12.3 nM | 0.113 s⁻¹ | 9.17e+06 M⁻¹ s⁻¹
B5 | 306 nM | 0.0528 s⁻¹ | 173000 M⁻¹ s⁻¹
B6 | 185 nM | 0.118 s⁻¹ | 636000 M⁻¹ s⁻¹
B7 | 46.9 nM | 0.112 s⁻¹ | 2.39e+06 M⁻¹ s⁻¹

These binders were tested against feline FcRn (IgG receptor FcRn large subunit p51 with feline beta-2-microglobulin) (feline) (assay: SPR Biacore 8K, Fc captured by SASA tag on BSA, pH 6.0).

Binder | Kd | koff | kon
B8 | 23.5 nM and 23.3 nM | 0.00538 s⁻¹ and 0.00545 s⁻¹ | 228000 M⁻¹ s⁻¹ and 234000 M⁻¹ s⁻¹
B9 | 55.6 nM and 50.2 nM | 0.0175 s⁻¹ and 0.0202 s⁻¹ | 314000 M⁻¹ s⁻¹ and 402000 M⁻¹ s⁻¹
B10 | 316 nM and 444 nM | 0.0761 s⁻¹ and 0.0888 s⁻¹ | 241000 M⁻¹ s⁻¹ and 200000 M⁻¹ s⁻¹
B11 | 1190 nM and 1640 nM | 0.374 s⁻¹ and 0.195 s⁻¹ | 314000 M⁻¹ s⁻¹ and 119000 M⁻¹ s⁻¹
B12 | 470 nM and 492 nM | 0.0957 s⁻¹ and 0.101 s⁻¹ | 203000 M⁻¹ s⁻¹ and 205000 M⁻¹ s⁻¹
B13 | 485 nM and 763 nM | 0.0788 s⁻¹ and 0.0803 s⁻¹ | 162000 M⁻¹ s⁻¹ and 105000 M⁻¹ s⁻¹
B14 | 603 nM | 0.1 s⁻¹ | 166000 M⁻¹ s⁻¹
B15 | 41.7 nM and 43.3 nM | 0.0158 s⁻¹ and 0.0161 s⁻¹ | 378000 M⁻¹ s⁻¹ and 371000 M⁻¹ s⁻¹
B16 | 103 nM and 102 nM | 0.0265 s⁻¹ and 0.0263 s⁻¹ | 257000 M⁻¹ s⁻¹ and 258000 M⁻¹ s⁻¹
B17 | 528 nM and 565 nM | 0.103 s⁻¹ and 0.105 s⁻¹ | 195000 M⁻¹ s⁻¹ and 187000 M⁻¹ s⁻¹

Each binder was assayed against feline FcRn (FCN-F82W3, Acrobiosystems) (feline) (assay: SPR Carterra, IgG coupled, pH 6.0).

Binder | Kd | koff | kon
B18 | 7 nM | 0.00516 s⁻¹ | 740000 M⁻¹ s⁻¹
B19 | 9.8 nM | 0.0095 s⁻¹ | 974000 M⁻¹ s⁻¹
B20 | 2.1 nM | 0.00568 s⁻¹ | 2.75e+06 M⁻¹ s⁻¹
B21 | 188 nM | 0.0944 s⁻¹ | 502000 M⁻¹ s⁻¹
B22 | 171 nM | 0.0602 s⁻¹ | 352000 M⁻¹ s⁻¹
B23 | 90.7 nM | 0.0417 s⁻¹ | 460000 M⁻¹ s⁻¹
B24 | 5.2 nM | 0.00629 s⁻¹ | 1.22e+06 M⁻¹ s⁻¹
B25 | 100 nM | 0.0445 s⁻¹ | 445000 M⁻¹ s⁻¹
B4 | 6.9 nM | 0.00648 s⁻¹ | 939000 M⁻¹ s⁻¹
B26 | 115 nM | 0.0622 s⁻¹ | 542000 M⁻¹ s⁻¹
B5 | 3.8 nM | 0.00405 s⁻¹ | 1.06e+06 M⁻¹ s⁻¹
B6 | 3 nM | 0.0044 s⁻¹ | 1.48e+06 M⁻¹ s⁻¹
B27 | 6.9 nM | 0.0064 s⁻¹ | 926000 M⁻¹ s⁻¹
B28 | 81.7 nM | 0.0493 s⁻¹ | 603000 M⁻¹ s⁻¹
B29 | 48.1 nM | 0.0265 s⁻¹ | 552000 M⁻¹ s⁻¹
B30 | 149 nM | 0.0526 s⁻¹ | 352000 M⁻¹ s⁻¹
B7 | 5.6 nM | 0.00779 s⁻¹ | 1.39e+06 M⁻¹ s⁻¹
B31 | 159 nM | 0.0618 s⁻¹ | 389000 M⁻¹ s⁻¹
B32 | 95.7 nM | 0.0437 s⁻¹ | 457000 M⁻¹ s⁻¹
B33 | 47.3 nM | 0.0283 s⁻¹ | 598000 M⁻¹ s⁻¹
